T1: Kap114p wild type (S. cerevisiae, UniProt P53067 1-1004)
T1 construct: Kap114p (karyopherin-β), S. cerevisiae, full length, amplified from total genomic DNA; GST tag followed by a PreScission site (modified pGEX6p1); PreScission protease added during dialysis; also called Kap114p WT; GST-Kap114p (plasmid pGEX-6P-1-Kap114); source: E. coli Rosetta, purified (GST resin, MonoQ, Superdex 200)
T1 sequence (looked up): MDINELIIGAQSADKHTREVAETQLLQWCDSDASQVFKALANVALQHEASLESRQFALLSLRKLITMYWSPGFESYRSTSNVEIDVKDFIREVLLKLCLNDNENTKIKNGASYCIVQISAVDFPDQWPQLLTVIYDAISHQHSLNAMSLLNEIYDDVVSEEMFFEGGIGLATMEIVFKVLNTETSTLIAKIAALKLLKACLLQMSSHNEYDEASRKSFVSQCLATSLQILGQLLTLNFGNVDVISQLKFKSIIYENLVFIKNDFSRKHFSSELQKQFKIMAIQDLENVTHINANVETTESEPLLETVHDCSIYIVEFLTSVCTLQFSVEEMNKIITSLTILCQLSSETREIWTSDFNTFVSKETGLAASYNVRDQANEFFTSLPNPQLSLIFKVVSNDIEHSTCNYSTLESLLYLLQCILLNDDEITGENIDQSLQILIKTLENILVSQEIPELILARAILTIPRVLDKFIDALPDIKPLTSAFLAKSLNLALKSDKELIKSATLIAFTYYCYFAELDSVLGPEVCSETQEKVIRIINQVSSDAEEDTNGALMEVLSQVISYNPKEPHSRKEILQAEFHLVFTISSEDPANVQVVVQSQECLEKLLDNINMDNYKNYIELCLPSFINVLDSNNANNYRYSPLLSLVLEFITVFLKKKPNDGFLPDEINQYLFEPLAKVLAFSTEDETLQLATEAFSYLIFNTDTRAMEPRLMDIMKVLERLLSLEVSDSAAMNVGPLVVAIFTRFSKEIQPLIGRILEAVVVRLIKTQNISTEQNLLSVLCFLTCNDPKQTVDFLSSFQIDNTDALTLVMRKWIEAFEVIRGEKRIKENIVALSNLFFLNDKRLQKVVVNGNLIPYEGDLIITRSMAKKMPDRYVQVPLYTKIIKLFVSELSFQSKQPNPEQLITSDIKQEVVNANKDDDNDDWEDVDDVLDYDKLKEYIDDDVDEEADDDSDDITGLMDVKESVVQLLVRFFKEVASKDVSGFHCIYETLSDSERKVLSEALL

T2: Kap114p (Q597A) (S. cerevisiae, UniProt P53067 1-1004, Q597A)
T2 construct: Kap114p, S. cerevisiae, full length with Q597A; also called GST-Kap114p (Q597); source: E. coli Rosetta, purified (GST resin, MonoQ, Superdex 200)
T2 sequence (looked up): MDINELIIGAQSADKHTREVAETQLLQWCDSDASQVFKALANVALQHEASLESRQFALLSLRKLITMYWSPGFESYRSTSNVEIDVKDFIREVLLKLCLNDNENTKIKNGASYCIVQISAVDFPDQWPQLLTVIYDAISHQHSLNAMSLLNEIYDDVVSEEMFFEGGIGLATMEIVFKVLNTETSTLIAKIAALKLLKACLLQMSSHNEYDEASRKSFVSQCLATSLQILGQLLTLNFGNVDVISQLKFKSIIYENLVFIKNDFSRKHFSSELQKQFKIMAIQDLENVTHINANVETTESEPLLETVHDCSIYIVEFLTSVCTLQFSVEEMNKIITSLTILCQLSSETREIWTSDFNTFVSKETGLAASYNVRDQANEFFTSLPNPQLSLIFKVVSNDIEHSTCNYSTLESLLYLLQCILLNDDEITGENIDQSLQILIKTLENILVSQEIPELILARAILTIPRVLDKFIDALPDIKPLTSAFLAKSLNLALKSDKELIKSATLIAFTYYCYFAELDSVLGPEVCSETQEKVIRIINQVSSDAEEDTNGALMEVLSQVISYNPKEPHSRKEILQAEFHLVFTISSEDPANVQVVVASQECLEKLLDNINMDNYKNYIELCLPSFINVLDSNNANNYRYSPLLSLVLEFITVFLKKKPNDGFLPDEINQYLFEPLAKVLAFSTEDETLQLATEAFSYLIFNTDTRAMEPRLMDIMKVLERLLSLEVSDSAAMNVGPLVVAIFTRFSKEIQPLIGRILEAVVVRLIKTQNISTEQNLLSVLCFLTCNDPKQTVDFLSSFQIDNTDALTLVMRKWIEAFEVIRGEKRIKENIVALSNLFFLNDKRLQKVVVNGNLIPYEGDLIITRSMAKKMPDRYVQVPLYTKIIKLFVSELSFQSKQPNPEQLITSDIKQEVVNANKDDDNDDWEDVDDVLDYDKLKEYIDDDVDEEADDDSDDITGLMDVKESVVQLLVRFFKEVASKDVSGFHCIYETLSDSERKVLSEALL

T3: Kap95p (S. cerevisiae, UniProt Q06142 1-861)
T3 construct: Kap95p, S. cerevisiae, full length; The purification paragraph is headed for Kap114p proteins; that Kap95p was treated alike is surmised; source: E. coli, GST-tagged construct in modified pGEX6p1; purification told for the GST-tagged proteins; not shown: GST, N-terminal, cleaved
T3 sequence (looked up): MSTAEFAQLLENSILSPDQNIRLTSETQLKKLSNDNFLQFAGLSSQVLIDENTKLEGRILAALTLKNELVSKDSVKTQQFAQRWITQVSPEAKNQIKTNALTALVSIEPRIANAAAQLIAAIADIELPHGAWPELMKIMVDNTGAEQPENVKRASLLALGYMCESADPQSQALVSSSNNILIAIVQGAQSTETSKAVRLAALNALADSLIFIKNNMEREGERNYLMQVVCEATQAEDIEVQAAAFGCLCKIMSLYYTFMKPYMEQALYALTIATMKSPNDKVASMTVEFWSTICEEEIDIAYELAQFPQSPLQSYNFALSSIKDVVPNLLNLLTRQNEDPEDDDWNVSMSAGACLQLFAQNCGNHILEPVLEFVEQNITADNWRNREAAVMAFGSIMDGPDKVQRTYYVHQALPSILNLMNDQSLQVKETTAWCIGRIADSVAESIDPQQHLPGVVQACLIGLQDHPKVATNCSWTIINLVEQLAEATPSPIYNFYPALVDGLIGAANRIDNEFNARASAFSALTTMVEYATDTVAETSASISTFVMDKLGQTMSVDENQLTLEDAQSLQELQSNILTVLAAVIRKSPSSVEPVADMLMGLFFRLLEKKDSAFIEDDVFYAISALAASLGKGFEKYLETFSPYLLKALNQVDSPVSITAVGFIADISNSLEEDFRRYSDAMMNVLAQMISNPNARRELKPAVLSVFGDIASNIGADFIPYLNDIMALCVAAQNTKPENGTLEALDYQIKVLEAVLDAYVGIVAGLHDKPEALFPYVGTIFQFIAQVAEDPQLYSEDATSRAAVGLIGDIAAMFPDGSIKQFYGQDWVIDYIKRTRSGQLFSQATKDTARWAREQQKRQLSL

T4: Kap114p (wild type) (S. cerevisiae, UniProt P53067 1-1004)
T4 construct: Kap114p, S. cerevisiae, full length, amplified from total genomic DNA; GST tag removed with PreScission protease; also called karyopherin-β Kap114p; source: E. coli Rosetta, purified (GST resin, MonoQ, Superdex 200); not shown: GST, N-terminal, cleaved
T4 sequence (looked up): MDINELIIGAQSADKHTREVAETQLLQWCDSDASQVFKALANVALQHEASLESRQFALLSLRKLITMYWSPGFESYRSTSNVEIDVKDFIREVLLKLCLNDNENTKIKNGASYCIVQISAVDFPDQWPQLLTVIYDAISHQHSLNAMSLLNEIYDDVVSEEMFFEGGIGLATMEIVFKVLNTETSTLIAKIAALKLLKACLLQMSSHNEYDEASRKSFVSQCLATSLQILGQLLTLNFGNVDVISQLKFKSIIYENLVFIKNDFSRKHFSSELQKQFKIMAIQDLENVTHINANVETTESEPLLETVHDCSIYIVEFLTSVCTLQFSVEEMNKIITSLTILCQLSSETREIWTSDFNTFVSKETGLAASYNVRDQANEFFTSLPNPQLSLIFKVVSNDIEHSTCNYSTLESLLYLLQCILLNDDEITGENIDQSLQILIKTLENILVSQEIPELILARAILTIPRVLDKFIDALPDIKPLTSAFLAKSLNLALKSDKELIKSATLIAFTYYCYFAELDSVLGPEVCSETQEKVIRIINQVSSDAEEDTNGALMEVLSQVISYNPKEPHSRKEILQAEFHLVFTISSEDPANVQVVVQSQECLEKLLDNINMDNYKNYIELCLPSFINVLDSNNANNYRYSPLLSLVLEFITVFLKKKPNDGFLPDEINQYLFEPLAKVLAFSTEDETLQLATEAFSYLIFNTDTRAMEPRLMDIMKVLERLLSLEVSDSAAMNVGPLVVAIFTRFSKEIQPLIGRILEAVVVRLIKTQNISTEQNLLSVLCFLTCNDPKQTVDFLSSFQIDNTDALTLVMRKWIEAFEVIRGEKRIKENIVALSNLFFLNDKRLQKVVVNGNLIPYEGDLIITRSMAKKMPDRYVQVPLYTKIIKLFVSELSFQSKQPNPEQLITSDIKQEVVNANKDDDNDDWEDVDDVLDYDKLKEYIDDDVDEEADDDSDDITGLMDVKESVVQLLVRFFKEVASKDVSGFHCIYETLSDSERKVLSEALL


What was measured:
Conditions in all cases: both partners purified
[1] = target: T1, Kap114p wild type; experiment: ITC; MicroCal iTC200, 25 °C, 20 mM HEPES pH 7.4, 150 mM NaCl; high concentration: 50 µM wild type or mutant Kap114p in the sample cell, 500 µM wild type or mutant yTBPC in the syringe; triplicate
[2] = target: T2, Kap114p (Q597A); experiment: as above
[3] = target: T2, Kap114p (Q597A); experiment: ITC; MicroCal iTC200, 25 °C, 20 mM HEPES pH 7.4, 150 mM NaCl; low concentration: 25 µM wild type or mutant Kap114p in the sample cell, 250 µM wild type or mutant yTBPC in the syringe; triplicate
[4] = target: T3, Kap95p; experiment: ITC; Kap95p with wild type or R141A yTBP^C; which protein was in the cell is not told for Kap95p; n = 3
[5] = target: T4, Kap114p (wild type); experiment: ITC; MicroCal iTC200, 25 °C, 20 mM HEPES pH 7.4, 150 mM NaCl; 25 or 50 μM wild type or mutant Kap114p in the cell, 250 or 500 μM wild-type or mutant yTBP^C in the syringe; triplicate

Row | Kd [1] | Kd [2] | Kd [3] | Kd [4] | fold reduction of the binding affinity against wild type yTBP^C [5] | Binder
1 | 255 nM | 316 nM | 165 nM |  |  | yTBP^C (R141A) (domain or fragment, S. cerevisiae, UniProt P13393 61-240, looked up, also called yTBP(R141A); His-yTBP (61-240) (R141A); source: E. coli Rosetta, purified (Ni-NTA, HiTrap SP, Superdex 75); not shown: His6, N-terminal, cleaved) SGIVPTLQNIVATVTLGCRLDLKTVALHARNAEYNPKRFAAVIMRIREPKTTALIFASGKMVVTGAKSEDDSKLASRKYAAIIQKIGFAAKFTDFKIQNIVGSCDVKFPIRLEGLAFSHGTFSSYEPELFPGLIYRMVKPKIVLLIFVSGKIVLTGAKQREEIYQAFEAIYPVLSEFRKM
2 |  |  |  | ~9700 nM | > 200 fold | yTBP^C (R141A) (domain or fragment, S. cerevisiae, UniProt P13393 61-240, looked up, 61-240, point mutant R141A; also called yTBP(R141A); source: E. coli Rosetta, purified (Ni-NTA, HiTrap SP, Superdex 75); not shown: His6, N-terminal, cleaved) SGIVPTLQNIVATVTLGCRLDLKTVALHARNAEYNPKRFAAVIMRIREPKTTALIFASGKMVVTGAKSEDDSKLASRKYAAIIQKIGFAAKFTDFKIQNIVGSCDVKFPIRLEGLAFSHGTFSSYEPELFPGLIYRMVKPKIVLLIFVSGKIVLTGAKQREEIYQAFEAIYPVLSEFRKM
